From US20220073935A1

Target: E2F1-SB, DP1 (E2F1 fragment with C-terminal Small BiT, co-expressed with Dp-1) (human) (UniProt Q01094)
Assay: NanoBiT split-luciferase complementation, cells stably expressing E2F1-SB and Dp-1; relative to WT LB-Rb

E2F1-SB, DP1 (E2F1 fragment with C-terminal Small BiT, co-expressed with Dp-1) (human), sequence (Q01094 whole entry, chain 1 of 2, the tested form may be a part): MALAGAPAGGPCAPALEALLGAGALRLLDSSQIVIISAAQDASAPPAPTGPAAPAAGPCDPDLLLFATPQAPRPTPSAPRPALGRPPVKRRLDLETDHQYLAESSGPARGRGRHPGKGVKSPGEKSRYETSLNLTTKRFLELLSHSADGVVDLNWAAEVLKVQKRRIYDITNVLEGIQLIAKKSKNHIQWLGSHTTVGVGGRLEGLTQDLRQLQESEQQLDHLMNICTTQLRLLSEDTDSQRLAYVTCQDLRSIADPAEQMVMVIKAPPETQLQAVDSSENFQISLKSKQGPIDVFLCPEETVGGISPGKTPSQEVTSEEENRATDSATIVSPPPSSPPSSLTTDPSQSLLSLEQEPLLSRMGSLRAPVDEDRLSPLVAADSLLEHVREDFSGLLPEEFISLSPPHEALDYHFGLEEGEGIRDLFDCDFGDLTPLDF
E2F1-SB, DP1 (E2F1 fragment with C-terminal Small BiT, co-expressed with Dp-1) (human), sequence (Q14186 whole entry, chain 2 of 2, further chain, the tested form may be a part): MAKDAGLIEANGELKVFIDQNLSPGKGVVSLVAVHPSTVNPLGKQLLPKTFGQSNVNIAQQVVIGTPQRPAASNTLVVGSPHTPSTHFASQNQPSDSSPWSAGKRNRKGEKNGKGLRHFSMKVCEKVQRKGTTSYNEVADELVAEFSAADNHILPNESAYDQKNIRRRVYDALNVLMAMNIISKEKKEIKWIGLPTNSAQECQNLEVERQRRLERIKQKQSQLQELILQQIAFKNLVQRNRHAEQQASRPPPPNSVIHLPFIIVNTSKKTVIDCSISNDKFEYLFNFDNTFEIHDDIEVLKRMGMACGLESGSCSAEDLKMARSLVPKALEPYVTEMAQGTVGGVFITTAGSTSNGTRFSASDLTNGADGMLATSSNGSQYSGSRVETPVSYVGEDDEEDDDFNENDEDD
LB-Rb (379-928) I703del35, in-frame deletion mutant, sequence (P06400 other isoform, or with tags, fused parts or gaps, stated change not applied): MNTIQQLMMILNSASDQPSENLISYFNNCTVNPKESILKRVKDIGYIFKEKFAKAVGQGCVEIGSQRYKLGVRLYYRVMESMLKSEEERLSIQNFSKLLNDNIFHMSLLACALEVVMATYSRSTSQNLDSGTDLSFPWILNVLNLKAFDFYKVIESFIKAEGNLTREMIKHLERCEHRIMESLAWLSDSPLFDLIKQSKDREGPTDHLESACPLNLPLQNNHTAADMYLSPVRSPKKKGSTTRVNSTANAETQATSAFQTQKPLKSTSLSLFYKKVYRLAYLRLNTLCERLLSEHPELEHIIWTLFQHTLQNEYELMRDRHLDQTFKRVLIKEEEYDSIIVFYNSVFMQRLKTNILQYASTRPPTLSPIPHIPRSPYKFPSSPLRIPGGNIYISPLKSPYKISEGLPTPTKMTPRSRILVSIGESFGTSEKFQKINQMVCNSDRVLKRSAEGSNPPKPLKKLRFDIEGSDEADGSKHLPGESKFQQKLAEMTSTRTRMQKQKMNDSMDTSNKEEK

| % (/wt) luciferase activity | Molecule |
| --- | --- |
| 120 % (/wt) | LB-Rb (379-928) R798W (from UniProt P06400 379-928) |
| 0.8 % (/wt) | LB-Rb (379-928) R661del1, out-of-frame deletion mutant (from UniProt P06400 379-660) |
| 8.6 % (/wt) | LB-Rb (379-928) I703del35, in-frame deletion mutant (from UniProt P06400 379-702; P06400 738-928) |
| 51 % (/wt) | LB-Rb (379-928) A488V (protein, part only; not given: Large BiT luciferase tag, human, UniProt P06400 379-928, looked up, part only) chain, part: MNTIQQLMMILNSASDQPSENLISYFNNCTVNPKESILKRVKDIGYIFKEKFAKAVGQGCVEIGSQRYKLGVRLYYRVMESMLKSEEERLSIQNFSKLLNDNIFHMSLLVCALEVVMATYSRSTSQNLDSGTDLSFPWILNVLNLKAFDFYKVIESFIKAEGNLTREMIKHLERCEHRIMESLAWLSDSPLFDLIKQSKDREGPTDHLESACPLNLPLQNNHTAADMYLSPVRSPKKKGSTTRVNSTANAETQATSAFQTQKPLKSTSLSLFYKKVYRLAYLRLNTLCERLLSEHPELEHIIWTLFQHTLQNEYELMRDRHLDQIMMCSMYGICKVKNIDLKFKIIVTAYKDLPHAVQETFKRVLIKEEEYDSIIVFYNSVFMQRLKTNILQYASTRPPTLSPIPHIPRSPYKFPSSPLRIPGGNIYISPLKSPYKISEGLPTPTKMTPRSRILVSIGESFGTSEKFQKINQMVCNSDRVLKRSAEGSNPPKPLKKLRFDIEGSDEADGSKHLPGESKFQQKLAEMTSTRTRMQKQKMNDSMDTSNKEEK |
| 47 % (/wt) | LB-Rb (379-928) E440K (protein, part only; not given: Large BiT luciferase tag, human, UniProt P06400 379-928, looked up, part only) chain, part: MNTIQQLMMILNSASDQPSENLISYFNNCTVNPKESILKRVKDIGYIFKEKFAKAVGQGCVKIGSQRYKLGVRLYYRVMESMLKSEEERLSIQNFSKLLNDNIFHMSLLACALEVVMATYSRSTSQNLDSGTDLSFPWILNVLNLKAFDFYKVIESFIKAEGNLTREMIKHLERCEHRIMESLAWLSDSPLFDLIKQSKDREGPTDHLESACPLNLPLQNNHTAADMYLSPVRSPKKKGSTTRVNSTANAETQATSAFQTQKPLKSTSLSLFYKKVYRLAYLRLNTLCERLLSEHPELEHIIWTLFQHTLQNEYELMRDRHLDQIMMCSMYGICKVKNIDLKFKIIVTAYKDLPHAVQETFKRVLIKEEEYDSIIVFYNSVFMQRLKTNILQYASTRPPTLSPIPHIPRSPYKFPSSPLRIPGGNIYISPLKSPYKISEGLPTPTKMTPRSRILVSIGESFGTSEKFQKINQMVCNSDRVLKRSAEGSNPPKPLKKLRFDIEGSDEADGSKHLPGESKFQQKLAEMTSTRTRMQKQKMNDSMDTSNKEEK |
| 7.4 % (/wt) | LB-Rb (379-928) I724N (protein, part only; not given: Large BiT luciferase tag, human, UniProt P06400 379-928, looked up, part only) chain, part: MNTIQQLMMILNSASDQPSENLISYFNNCTVNPKESILKRVKDIGYIFKEKFAKAVGQGCVEIGSQRYKLGVRLYYRVMESMLKSEEERLSIQNFSKLLNDNIFHMSLLACALEVVMATYSRSTSQNLDSGTDLSFPWILNVLNLKAFDFYKVIESFIKAEGNLTREMIKHLERCEHRIMESLAWLSDSPLFDLIKQSKDREGPTDHLESACPLNLPLQNNHTAADMYLSPVRSPKKKGSTTRVNSTANAETQATSAFQTQKPLKSTSLSLFYKKVYRLAYLRLNTLCERLLSEHPELEHIIWTLFQHTLQNEYELMRDRHLDQIMMCSMYGICKVKNIDLKFKINVTAYKDLPHAVQETFKRVLIKEEEYDSIIVFYNSVFMQRLKTNILQYASTRPPTLSPIPHIPRSPYKFPSSPLRIPGGNIYISPLKSPYKISEGLPTPTKMTPRSRILVSIGESFGTSEKFQKINQMVCNSDRVLKRSAEGSNPPKPLKKLRFDIEGSDEADGSKHLPGESKFQQKLAEMTSTRTRMQKQKMNDSMDTSNKEEK |
| 5.5 % (/wt) | LB-Rb (379-928) C706F (protein, part only; not given: Large BiT luciferase tag, human, UniProt P06400 379-928, looked up, part only) chain, part: MNTIQQLMMILNSASDQPSENLISYFNNCTVNPKESILKRVKDIGYIFKEKFAKAVGQGCVEIGSQRYKLGVRLYYRVMESMLKSEEERLSIQNFSKLLNDNIFHMSLLACALEVVMATYSRSTSQNLDSGTDLSFPWILNVLNLKAFDFYKVIESFIKAEGNLTREMIKHLERCEHRIMESLAWLSDSPLFDLIKQSKDREGPTDHLESACPLNLPLQNNHTAADMYLSPVRSPKKKGSTTRVNSTANAETQATSAFQTQKPLKSTSLSLFYKKVYRLAYLRLNTLCERLLSEHPELEHIIWTLFQHTLQNEYELMRDRHLDQIMMFSMYGICKVKNIDLKFKIIVTAYKDLPHAVQETFKRVLIKEEEYDSIIVFYNSVFMQRLKTNILQYASTRPPTLSPIPHIPRSPYKFPSSPLRIPGGNIYISPLKSPYKISEGLPTPTKMTPRSRILVSIGESFGTSEKFQKINQMVCNSDRVLKRSAEGSNPPKPLKKLRFDIEGSDEADGSKHLPGESKFQQKLAEMTSTRTRMQKQKMNDSMDTSNKEEK |
| 79 % (/wt) | LB-Rb (379-928) R656W (protein, part only; not given: Large BiT luciferase tag, human, UniProt P06400 379-928, looked up, part only) chain, part: MNTIQQLMMILNSASDQPSENLISYFNNCTVNPKESILKRVKDIGYIFKEKFAKAVGQGCVEIGSQRYKLGVRLYYRVMESMLKSEEERLSIQNFSKLLNDNIFHMSLLACALEVVMATYSRSTSQNLDSGTDLSFPWILNVLNLKAFDFYKVIESFIKAEGNLTREMIKHLERCEHRIMESLAWLSDSPLFDLIKQSKDREGPTDHLESACPLNLPLQNNHTAADMYLSPVRSPKKKGSTTRVNSTANAETQATSAFQTQKPLKSTSLSLFYKKVYWLAYLRLNTLCERLLSEHPELEHIIWTLFQHTLQNEYELMRDRHLDQIMMCSMYGICKVKNIDLKFKIIVTAYKDLPHAVQETFKRVLIKEEEYDSIIVFYNSVFMQRLKTNILQYASTRPPTLSPIPHIPRSPYKFPSSPLRIPGGNIYISPLKSPYKISEGLPTPTKMTPRSRILVSIGESFGTSEKFQKINQMVCNSDRVLKRSAEGSNPPKPLKKLRFDIEGSDEADGSKHLPGESKFQQKLAEMTSTRTRMQKQKMNDSMDTSNKEEK |
| 132 % (/wt) | LB-Rb (379-928) V654M (protein, part only; not given: Large BiT luciferase tag, human, UniProt P06400 379-928, looked up, part only) chain, part: MNTIQQLMMILNSASDQPSENLISYFNNCTVNPKESILKRVKDIGYIFKEKFAKAVGQGCVEIGSQRYKLGVRLYYRVMESMLKSEEERLSIQNFSKLLNDNIFHMSLLACALEVVMATYSRSTSQNLDSGTDLSFPWILNVLNLKAFDFYKVIESFIKAEGNLTREMIKHLERCEHRIMESLAWLSDSPLFDLIKQSKDREGPTDHLESACPLNLPLQNNHTAADMYLSPVRSPKKKGSTTRVNSTANAETQATSAFQTQKPLKSTSLSLFYKKMYRLAYLRLNTLCERLLSEHPELEHIIWTLFQHTLQNEYELMRDRHLDQIMMCSMYGICKVKNIDLKFKIIVTAYKDLPHAVQETFKRVLIKEEEYDSIIVFYNSVFMQRLKTNILQYASTRPPTLSPIPHIPRSPYKFPSSPLRIPGGNIYISPLKSPYKISEGLPTPTKMTPRSRILVSIGESFGTSEKFQKINQMVCNSDRVLKRSAEGSNPPKPLKKLRFDIEGSDEADGSKHLPGESKFQQKLAEMTSTRTRMQKQKMNDSMDTSNKEEK |
| 5 % (/wt) | LB-Rb (379-928) L665R (protein, part only; not given: Large BiT luciferase tag, human, UniProt P06400 379-928, looked up, part only) chain, part: MNTIQQLMMILNSASDQPSENLISYFNNCTVNPKESILKRVKDIGYIFKEKFAKAVGQGCVEIGSQRYKLGVRLYYRVMESMLKSEEERLSIQNFSKLLNDNIFHMSLLACALEVVMATYSRSTSQNLDSGTDLSFPWILNVLNLKAFDFYKVIESFIKAEGNLTREMIKHLERCEHRIMESLAWLSDSPLFDLIKQSKDREGPTDHLESACPLNLPLQNNHTAADMYLSPVRSPKKKGSTTRVNSTANAETQATSAFQTQKPLKSTSLSLFYKKVYRLAYLRLNTRCERLLSEHPELEHIIWTLFQHTLQNEYELMRDRHLDQIMMCSMYGICKVKNIDLKFKIIVTAYKDLPHAVQETFKRVLIKEEEYDSIIVFYNSVFMQRLKTNILQYASTRPPTLSPIPHIPRSPYKFPSSPLRIPGGNIYISPLKSPYKISEGLPTPTKMTPRSRILVSIGESFGTSEKFQKINQMVCNSDRVLKRSAEGSNPPKPLKKLRFDIEGSDEADGSKHLPGESKFQQKLAEMTSTRTRMQKQKMNDSMDTSNKEEK |
| 124 % (/wt) | LB-Rb (379-928) R621S (protein, part only; not given: Large BiT luciferase tag, human, UniProt P06400 379-928, looked up, part only) chain, part: MNTIQQLMMILNSASDQPSENLISYFNNCTVNPKESILKRVKDIGYIFKEKFAKAVGQGCVEIGSQRYKLGVRLYYRVMESMLKSEEERLSIQNFSKLLNDNIFHMSLLACALEVVMATYSRSTSQNLDSGTDLSFPWILNVLNLKAFDFYKVIESFIKAEGNLTREMIKHLERCEHRIMESLAWLSDSPLFDLIKQSKDREGPTDHLESACPLNLPLQNNHTAADMYLSPVRSPKKKGSTTSVNSTANAETQATSAFQTQKPLKSTSLSLFYKKVYRLAYLRLNTLCERLLSEHPELEHIIWTLFQHTLQNEYELMRDRHLDQIMMCSMYGICKVKNIDLKFKIIVTAYKDLPHAVQETFKRVLIKEEEYDSIIVFYNSVFMQRLKTNILQYASTRPPTLSPIPHIPRSPYKFPSSPLRIPGGNIYISPLKSPYKISEGLPTPTKMTPRSRILVSIGESFGTSEKFQKINQMVCNSDRVLKRSAEGSNPPKPLKKLRFDIEGSDEADGSKHLPGESKFQQKLAEMTSTRTRMQKQKMNDSMDTSNKEEK |
| 92 % (/wt) | LB-Rb (379-928) R798Q (protein, part only; not given: Large BiT luciferase tag, human, UniProt P06400 379-928, looked up, part only) chain, part: MNTIQQLMMILNSASDQPSENLISYFNNCTVNPKESILKRVKDIGYIFKEKFAKAVGQGCVEIGSQRYKLGVRLYYRVMESMLKSEEERLSIQNFSKLLNDNIFHMSLLACALEVVMATYSRSTSQNLDSGTDLSFPWILNVLNLKAFDFYKVIESFIKAEGNLTREMIKHLERCEHRIMESLAWLSDSPLFDLIKQSKDREGPTDHLESACPLNLPLQNNHTAADMYLSPVRSPKKKGSTTRVNSTANAETQATSAFQTQKPLKSTSLSLFYKKVYRLAYLRLNTLCERLLSEHPELEHIIWTLFQHTLQNEYELMRDRHLDQIMMCSMYGICKVKNIDLKFKIIVTAYKDLPHAVQETFKRVLIKEEEYDSIIVFYNSVFMQRLKTNILQYASTRPPTLSPIPHIPRSPYKFPSSPLQIPGGNIYISPLKSPYKISEGLPTPTKMTPRSRILVSIGESFGTSEKFQKINQMVCNSDRVLKRSAEGSNPPKPLKKLRFDIEGSDEADGSKHLPGESKFQQKLAEMTSTRTRMQKQKMNDSMDTSNKEEK |
| 6.4 % (/wt) | LB-Rb (379-928) R698W (protein, part only; not given: Large BiT luciferase tag, human, UniProt P06400 379-928, looked up, part only) chain, part: MNTIQQLMMILNSASDQPSENLISYFNNCTVNPKESILKRVKDIGYIFKEKFAKAVGQGCVEIGSQRYKLGVRLYYRVMESMLKSEEERLSIQNFSKLLNDNIFHMSLLACALEVVMATYSRSTSQNLDSGTDLSFPWILNVLNLKAFDFYKVIESFIKAEGNLTREMIKHLERCEHRIMESLAWLSDSPLFDLIKQSKDREGPTDHLESACPLNLPLQNNHTAADMYLSPVRSPKKKGSTTRVNSTANAETQATSAFQTQKPLKSTSLSLFYKKVYRLAYLRLNTLCERLLSEHPELEHIIWTLFQHTLQNEYELMRDWHLDQIMMCSMYGICKVKNIDLKFKIIVTAYKDLPHAVQETFKRVLIKEEEYDSIIVFYNSVFMQRLKTNILQYASTRPPTLSPIPHIPRSPYKFPSSPLRIPGGNIYISPLKSPYKISEGLPTPTKMTPRSRILVSIGESFGTSEKFQKINQMVCNSDRVLKRSAEGSNPPKPLKKLRFDIEGSDEADGSKHLPGESKFQQKLAEMTSTRTRMQKQKMNDSMDTSNKEEK |
